The target in data set [1] is T1, GST-IN-CTD (HIV-1 integrase C-terminal domain) (HIV-1, UniProt P04585 1348-1435). As to the kind of experiment: competition (AlphaScreen); low salt; competes with His6-SUMO-INI1(183-304) (0.094 uM) for GST-CTD (0.186 uM); Alpha proximity assay, low salt (100 mM NaCl; 500 mM in salt test); buffer, pH and temperature not in the material. The settings on record: protein: recombinant; tags: GST; hairpin. (Bead proximity is the source of the signal in Alpha formats.)

The target of data set [2] is T1, GST-IN-CTD (HIV-1 integrase C-terminal …). The data set is described as follows: AlphaScreen; 100 mM NaCl; displaced by INI1(183-304), IC50 of INI1 about 5 nM (Fig. 4e); Alpha proximity assay, low salt (100 mM NaCl; 500 mM in salt test); buffer, pH and temperature not in the material. The settings on record: protein: recombinant; tags: GST; label: biotin; hairpin.

B1: unlabeled TAR RNA (HIV-1 vRNA 1-57) (structured_RNA)
RNA: GGUCUCUCUGGUUAGACCAGAUCUGAGCCUGGGAGCUCUCUGGCUAACUAGGGAACC
B1: in data set [1], the concentration for half-maximal inhibition (IC50) (as a rule, the concentration at which inhibition is half-maximal) is around 5 nM.

B2: Bio-TAR RNA (HIV-1 vRNA 1-57) (structured_RNA)
RNA: B1 RNA
modifications: biotin-dT (terminal; end ambiguous in printed table)
Consider B2, for which the binding result in data set [2] is “binds”.

(Values after article PMC8115288, “INI1/SMARCB1 Rpt1 domain mimics TAR RNA in binding to integrase to facilitate HIV-1 replication”.)
